Test [1] deals with recombinant nucleoprotein (NP) protein derived from influenza virus H1N1 to which a Flag tag was fus (influenza virus H1N1).
Test [2] addresses intranuclear protein derived from type-A influenza virus subtype H1N1 (A/Hokkaido/6-5/2014) (type-A influenza virus H1N1 …).

Chain of recombinant nucleoprotein (NP) protein derived from influenza virus H1N1 to which a Flag tag was fus (influenza virus H1N1) (P03466 whole entry): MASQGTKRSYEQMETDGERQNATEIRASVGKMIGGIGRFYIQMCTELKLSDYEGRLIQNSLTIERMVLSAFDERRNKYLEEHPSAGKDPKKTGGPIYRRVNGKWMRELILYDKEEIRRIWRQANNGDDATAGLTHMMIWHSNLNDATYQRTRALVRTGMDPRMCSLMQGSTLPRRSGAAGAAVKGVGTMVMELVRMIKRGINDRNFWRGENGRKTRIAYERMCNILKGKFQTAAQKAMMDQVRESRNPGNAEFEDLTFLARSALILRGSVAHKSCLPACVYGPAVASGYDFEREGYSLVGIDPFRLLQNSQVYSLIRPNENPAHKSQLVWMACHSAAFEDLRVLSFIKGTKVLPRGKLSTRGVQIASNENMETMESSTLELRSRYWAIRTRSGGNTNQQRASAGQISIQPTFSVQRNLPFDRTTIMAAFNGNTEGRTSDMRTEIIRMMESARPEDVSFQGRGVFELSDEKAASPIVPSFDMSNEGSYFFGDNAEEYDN

B1: VHH antibody consisting of the amino acid sequence represented by SEQ ID NO: 8 (VHH)
VHH: EVQLVESGGGLVQPGGSLSLSCAASGFTFSNYYMGWFRQAPGKERQSLATVNSGGTGEAYADSIRGRFTISRDNAKNTVTLQMSSLQPEDTAVYYCARVDGRVLSTIVVSYDYWGQGTQVTVSS
As for B1, the Kd in test [1] was determined as 0.201 nM. Besides, the “EC50 (read off the curve)” value in test [2] is around 8 ng/mL.

A word on the Kd: it is a measure of binding affinity in units of concentration. A word on the EC50 (read off the curve): it is the midpoint of the concentration-response curve. Read a high EC50 (read off the curve) as a less potent agent.

For the origin of these results see US20200291098A1 (PANASONIC INTELLECTUAL PROPERTY MANAGEMENT, published 2020).
